Measured values taken from a protein production outcome set (Wang et al. 2014).

Assay: label from the status in PepcDB records
For “MGFFSRDIQTMEDLLLHGLRDIYYAEQQITKALPKMIEQATNRDLSQGLTSHLEETQKQIERLDQVFKKLGQKPSGVNCPAIDGLIKEADETAGEIADKTVLDAAIVANAQAVEHYEIARYGTLIAWAEELGHDDIVRFLTTNLNEEKAANTKLNTVALRKGVNRKAAS”, the protein production was “not failed”.
With “MGFIGSGSIGGTIARLAVAAGHQVVLSNSRGPGSLADTVAELGPRASAATSEEAAAAGDIVVVTVPVTAFPDLPAAPLAGKTVIDTCNYGPERDGHIPELDGTSLTSSELLLRYVPGAMLVKGFNNIYFKHLLSLARPAGATDRSYLPIAGDLAPAKAAATEFIDSIGYGVVDAGLLADSWRQATGTPVWGTPYGPPSNEMGRPTGPGAIRAALATATR” the protein production was “failed”.
In the case of “MGFIVFCLIAYFVISHLSNKKDVSGNKANSNCPYCNAAFYLTENGDFNCSNCGRLFKYRDGIVYRQDERLPIVVELACTLFTILCKADGVVTKDEVSITKELLEKNFGLEDKDMKMAIDILNKSKSKPYTKTIINDLNNIFNNYDFSKTDAEDYKELILRCAMIIAFCDDGEPSNNQNKILDDIVSIFNISATKYTNLLNYFRDNCIEKNKNDYYEILGVSEGASKEEIRAAFRKLSKLYHPDRYSSKDLPPEIIKEFEEKLAKIIEAYEALK”, the protein production is reported as “failed”.
With “MGFLQRISLMITSLIILHTIPSTTSISITPDAPTMILIDSICVNTKNMYYCEQSIISKLGNPHAEIKTIADIAAFNAVYLITSAGNYIRDKFIPIAENPLVKNQLVLCLATYRAVQKLLEGAYLADRRGDYSDMRHYQSSVLGMLDNCKTDFDYMVRTNWGVRLMINISLLATRQLPAQ” the protein production was “failed”.
With “MGFPKLETERLQLRELTLLDAETMFHYFSKESVIRYFGMDSFENIEQAKTTIQTFKNRYEEGSVFRWGIEKKGTGQLIGTCGFHLINHHHKRAEIGYELDDTYWGQGYASEALQAILTYGFETLQLIRIAAVVYVENKASQKLLSKAGFQEEGLLRKHMIQNGVAHDTILYSLLKEEWKK” the protein production was “failed”.
With “MGGAVLAQPPGPTPTDGVPLRSSQPAVQVEPAPTTATAAPIERLFPKLTGRVVDTAQLLTPSAQVYLAQMLERLEQTTTDQVVVATVPSLGGHSIEEFGLQLGRHWGIGRKDKNNGVLLLVAKDDRKVRIEVGYGLEGRLNDIVAHFIIDGSIIPYFKDDLYSSGIIAGATSIVSVLSSTDRPMLVYRSVEKNWYQDIEWMWWFERLFYLVFVGVPLFGFLTQWRSGDDSPVVASGDSARRETRAERDTGSSSSAFDWFDSSSSSSSSSSDSFSGGGGSFGGGGASGSW” the protein production was “failed”.
With “MGGCPVRKRRRNGSKEGNHHSTQPKRNKRNPIFQDSQDTEFSWSDNERSSSRINIPERASGPEGNLNQIVTEPDANFPQFLHEGLSKPVYVINWFMSFGPEIKLNTSQQGRNQAV” the protein production was “failed”.
For “MGGDKIDLYKRFSILFCTIFLLLILQGTVAAESNYTVDYSTYLGDKVVDEARDVYVDDSGYIYVTGSTHVNGSKDVFVTKFNVTREVIYHTILTDTSGDDWGHRIVADGDGYAYVVGEINHDGLKVADAFISKIDPSGKEVKRVYIGGSGYDVAKGLAIDYEGNIYVSGYTISTVLNVSELGGGTARVPGTNPNATPLTDWTYHGGYDAFLARFDQDLNPVNLRYFGGSWDDYCQGIAIDYAGNIYITGYTYSDDFPVTFDAISGDKRGTTDIFLSRFTPDLNCDYSTYLGGSGPDFCYSIISRDSRIYLAGKTNSSDFPVTPNAYQKTRNGSSDGFIMVFNDYSVEYSTYLGGRGDDSINDITQDILGNLYLTGWTGSDNFPLTPGAYDSSLSGVDAFVMKFSIPKGVLYSSYLGGIEADQGYGVAVDRYQNIYVAGKTWSSNFTVTPDACKKNLTGLSDGFLTRFTPFIISNISVTPLNGTGPLTVTLRGNITNCGDSTGWYRLDLYINGYRTAGKWVEVGSLETEPFEFEYTLRNSRAYSVGVNNFPPATVRVFLGPLIIPENLRVTPSGGQEPLKVNVTADLVNYGDLPDSYTAELYIDGVLLDSRNVTVNASSRTTVSFNRTLAAGLYEITINDLEPELVYVMEGEKFYIENFTLTPQSGAAPLTVTVSAMITNIDSNPRSYTATIYVNGVPDHTKVLNIPGESTVPFSTSILLPDRGLYTISLNNNVSGTVRVLSEANFTLSNVTVSPVEGKSPLNVTVTAIVRNNGDLAGDFAVTLYLDDVAWETRTVSVPGKSSVLVSFKKELAFPGEYRLRLNSGTDVTIRVLEPDPTITGFNVTPVTGPAPLSVRASLNVTNPHDLVIGFTARLMVDGVVVQENIVSLSPGETREIAMGTLLTPGNHTVGINEFSKIVRVLRPASITLSDLRVTPSSGFSPLTITATATARNTGEVDGNYTAVLYINGLAVDEKNVTVGAGRSVQVAFNHTIENAGIYLAGIGSLTPLDVRVLSEPAISNLSATPLTGVSPHRIIVTALVSTTEEGSGNYTAGLYIDGVNVQNRTVRVTGPGSVLVSFTADISEPGEHQVTVNSLSPVTVRVLRPATFIVDSLTVSPSTGVIPFRVNASVRVTNIGDIAGNYTARLYIDGVNVQNRTVNVPAGGDVTVSFTYNITQRGNHTVWIDNPPGINVNALKPATLEIRSFSVTPGSAVGSVNANVSAEIENSGDLEGEFSIPFYLNGSLIRNETIRLGPGERGNINFQQYLSGPGVYTFSLGNLRNSTVYVNPARRKYSFTFRNTGKYTTTVTYYVTVYSSTGAKLGYRTFKFTLKPGRSYSATIGYYPYDARIVTTRKIYNPSRYTRTIKLSETFRADTLSATLNYSNTIRGYRYVYIKKTFRAVNMRITVT”, the protein production was “failed”.
In the case of “MGGEASPRSLQDWRHVHNTIIPAHVLSLDDVRERAGRNRLEVAYLDDVLVGCSTVRPPADAPTPDAPATATVIARVLAAHRGRGFGGEMYERGLKHARALGAQVIETVVLSSNPDGLRFALKHGFAETERYLLPGDTVPWIDLRLSV”, the protein production is reported as “failed”.
In the case of “MGGGEVKMMSLLEEMKGIYSKKGGKVKPFEKFEGELKEGYRFEYEKKLCEIDVAMFGLISGDLNPVHFDEDFASKTRFGGRVVHGMLTTSLVSAAVARLPGTVVLLEQSFRYTSPVRIGDVVRVEGVVSGVEKNRYTIDVKCYTGDKVVAEGVVKVLIW”, the protein production is reported as “not failed”.
With “MGGITITAVISNRDKVTFGEVADHYHSNKLIFGLKYFKNWVLERVAAWFPIPSWRAKFHKMRGVNLGKNVYVGYDVVFDRLHPEMITVGDYSEIGDRCILSAHSRGSLTTRQAYPRTIEPIKIGCGVSVNPGCIITQGVEIGDNSIIGIGSVVTRDISPNSLALGYPARVIKKLDGVGELQTSFNDT” the protein production was “failed”.
In the case of “MGGRIASLLLDELHASTTVAAGVCLGYPFHPLGKPAQLRTHHLIDLSAPCLIFQGERDAMGRQDEVEVYSMSSAVTLQWIPDGDHSFSPRKRSGRTEEQNLCLAVQHVHSFLDSV”, the protein production is reported as “failed”.
With “MGHHHHHHSHGIVPGSVVLMAGEPGVGKSTLLLEVASRWASMKEGDGTRTALYVTAEESAGQVRLRAERTAAVKDTLYLAAESNLDVVFGHVNQVKPSLLIVDS” the protein production was “failed”.
With “MGHHHHHHSHGYLLKPEFMRRPDKSFDPFTEVIVDGIVANALRVKVISGQFLSDRKVGIYVEVDMFGLPVDTRRKYRTRTSQGNSFNPVWDEEPFDFPKVVLPTLASLRIAAFEEGGKFVGHRILPVSAIRSGYHYVCLRNEANQPLCLPALLIYTEASDYIPDDHQDYAEALINPIKHVSLMDQRARQLAALIG” the protein production was “failed”.
In the case of “MGHHHHHHSHMACYIYQLPSWVLDDLCRNMDALSEWDWMEFASYVITDLTQLRKIKSMERVQGVSITRELLWWWGMRQATVQQLVDLLCRLELYRAAQIILNWKPAPEIRCPIPAFPDSVK”, the protein production is reported as “failed”.
In the case of “MGHHHHHHSHMADVEDGEETCALASHSGSSGSKSGGDKMFSLKKWNAVAMWSWDVECDTCAICRVQVMDACLRCQAENKQEDCVVVWGECNHSFHNCCMSLWVKQNNRCPLCQQDWVVQRIGK”, the protein production is reported as “failed”.
With “MGHHHHHHSHMAGPSNVPAFLTKLWTLVSDPDTDALICWSPSGNSFHVFDQGQFAKEVLPKYFKHNNMASFVRQLNMYGFRKVVHIEQGGLVKPERDDTEFQHPCFLRGQEQLLENIKRKVTSVS” the protein production was “not failed”.
In the case of “MGHHHHHHSHMAILIAFMKQRRMGLNDFIQKIANNSYACKHPEVQSILKISQPQEPELMNANPSPPPSPSQQINLGPSSNPHAKPSDFHFL”, the protein production is reported as “failed”.
With “MGHHHHHHSHMARPLVPSSQKALLLELKGLQEEPVEGFRVTLVDEGDLYNWEVAIFGPPNTYYEGGYFKARLKFPIDYPYSPPAFRFLTKMWHPNIYETGDVCISILHPPVDDPQSGELPSERWNPTQNVRTILLSVISLLNEPNTFSPANVDASVMYRKWKESKGKDREYTDIIRKQVLGTKVDAERDGVKVPTTLAEYCVKTKAPAPDEGSDLFYDDYYEDGEVEEEADSCFGDDEDDSGTEES” the protein production was “failed”.
In the case of “MGHHHHHHSHMATGEEVPRTIIVTTRSQYGLPEDAIVYCNFNQLYKIDPSTLQMWANILKRVPNSVLWLLRFPAVGEPNIQQYAQNMGLPQNRIIFSPVAPKEEHVRRGQLADVCLDTPLCNG”, the protein production is reported as “failed”.
With “MGHHHHHHSHMATSSQYRQLLSDYGPPSLGYTQGTGNSQVPQSKYAELLAIIEELGKEIRPTYAGSKSAMERLKRGIIHARGLVRECLAETERNARS” the protein production was “not failed”.
In the case of “MGHHHHHHSHMDTPENVLQMLEAHMQSYKGNDPLGEWERYIQWVEENFPENKEYLITLLEHLMKEFLDKKKYHNDPRFISYCLKFAEYNSDLHQFFEFLYNHGIGTLSSPLYIAWAGHLEAQGELQHASAVLQRGIQNQAEPREFLQQQYRLFQTRLTETHLPAQAR”, the protein production is reported as “failed”.
With “MGHHHHHHSHMHGWTWSVPKFMKRMKVPDYKDKAVFGVPLIVHVQRTGQPLPQSIQQALRYLRSNCLDQVGLFRKSGVKSRIHALRQMNENFPENVNYEDQSAYDVADMVKQFFRDLPEPLFTNKLSETFLHIYQYVSKEQRLQAVQAAILLLADENREVLQTLLCFLNDVVNLVEENQMTPMNLAVCLAPSLFHLNLL” the protein production was “failed”.
In the case of “MGHHHHHHSHMKKDPTLQQAHDTMRFFRRGGSLRMLLDDDVTQPLNTVYRYAMQLMEVKEFAGAARLFQLLTIYDAWSFDYWFRLGECCQAQKHWGEAIYAYGRAAQIKIDAPQAPWAAAECYLACDNVCYAIKALKAVVRICGEVSEHQILRLRAEKMLQQLSDRS”, the protein production is reported as “failed”.
For “MGHHHHHHSHMNSTECTLILTEGDSAKTLAVSGLGVVGRDKYGVFPLRGKILNVREASHKQIMENAEINNIIKIVGLQYKKNYEDEDSLKTLRYGKIMIMTDQDQDGSHIKGLLINFIHHNWPSLLRHRFLEEFITPIVKVSKNKQEMAFYSLPEFEEWKSSTPNHKKWKVKYYKGLGTSTSKEAKEYFADMKRHRIQFKYSGPEDDAAISLAFSKKQIDDRKEWLTNFMEDR”, the protein production was “failed”.
For “MGHHHHHHSHMPLVKRNIDPRHLCHTALPRGIKNELECVTNISLANIIRQLSSLSKYAEDIFGELFNEAHSFSFRVNSLQERVDRLSVSVTQLDPKEEELSLQDITMRKAFRSSTIQDQQLFDRKTLPIPLQETYDVCEQPPPLNILT”, the protein production was “not failed”.
In the case of “MGHHHHHHSHMQFFLPDATATHQFGVLLGQRLLASSTLLLEGDLGSGKTTLTQGIAQGLGIPDVVASPTFTLVCEYSEGRLPLYHFDLYRLEAPDVARLLPELYWEGVEFEPGLVVIEWPERLPYRPAAYWSLVLTPSLELEGRQLVLTPVNQDPTTVANLEVQLAAQFRARPATAES”, the protein production is reported as “not failed”.
For “MGHHHHHHSHMSNPIQAEVLKRVAEVFDQHVPFHNLLGLDIKRYDIDGVEVAINMKPELIGNIHQQILHGGVTATVLDVVGGLTAFAGLVASRDDWTIEELQQRLQTLGTIDMRVDYLRPGRGQIFTGTGSVIRAGNRVSVCRMELHNEQGTHIAFGTGTYMVG”, the protein production was “not failed”.
With “MGHHHHHHSHMSTSLTGKPGALPANLDDMKVAELKQELKLRSLPVSGTKTELIERLRAYQDQISPVPGAPKAPAA” the protein production was “failed”.
With “MGHHHHHHSHMTENDLASLFNNSALFKALGFNIIEINDDAIVMEINDDNPCHQGGFGVLTSLGINGAVISAALESAIGLCGFNALGREPAGVVELSVKILRVIRKKPCRVEARVDNKNNNVAFISATLISARGGICATGTGIVLKSKTTEATQ” the protein production was “not failed”.
